# Experimental data as given in patent US20260117259A1.
# Like-named read-outs stand apart in the source and are kept apart here.
# Legend:
# [1] = target: 16055-ConM-v8.1ds SOSIP trimer (HIV-1); experiment: flow cytometry, primary murine B cells edited in the HCDR3, labeled 16055-ConM-v8.1ds SOSIP against surface IgM
# SOSIP [2] = experiment: flow cytometry of murine B cells edited with the VRC26.25 HCDR3, APC-labeled SOSIP trimer against anti-IgM; activation Low dose LPS + IL4
# SOSIP [3] = experiment: flow cytometry of murine B cells edited with the VRC26.25 HCDR3, APC-labeled SOSIP trimer against anti-IgM; activation Anti-CD180
# [4] = target: 16055-ConM-v8.1ds SOSIP trimer (HIV-1); experiment: flow cytometry, VRC26.25 HCDR3-edited primary murine B cells, labeled SOSIP against surface IgM
# [5] = target: ConM SOSIP protein (v8.1ds) modified with the BG505 V1V2 region (HIV-1); experiment: as above
# ConM-v8.1ds [6] = experiment: as above
# [7] = target: ConM SOSIP protein (v8.1ds) modified with the CRF250 V1V2 region (HIV-1); experiment: as above
# BG505ConM-v7ds (GnTI-) = experiment: as above
# ConM-v7ds (GnTI-) = experiment: as above
# CRFConM-v8.1ds (GnTI-) = experiment: as above
# CRF250ConM-v7ds (GnTI-) = experiment: as above
# CRF250ConM-v8.1 (GnTI-) = experiment: as above
# BG505ConM-v8.1 (GnTI-) = experiment: as above
# [8] = target: ConM SOSIP protein (v8.1ds) modified with the BG505 V1V2 region (HIV-1); experiment: as above; remark: listed apart in the source
# ConM-v8.1(GnTI-) = experiment: as above
# ConM-v7ds = experiment: as above
# ConM-v7 (GnTI-) = experiment: as above
# BG505ConM-v8.1ds (GnTI-) = experiment: as above
# BG505ConM-v7ds = experiment: as above
# CRF250ConM-v7ds = experiment: as above
# ConM-v8.1ds [9] = experiment: as above; remark: listed apart in the source
# [10] = target: ConM SOSIP protein (v8.1ds) modified with the CRF250 V1V2 region (HIV-1); experiment: as above; remark: listed apart in the source
# ConM-v7 = experiment: as above
# ConM-8.1ds (GnTI-) = experiment: as above
# BG505ConM-v8.1 = experiment: as above
# SOSIP [11] = experiment: flow cytometry of murine B cells edited with the VRC26.25 HCDR3, APC-labeled SOSIP trimer against anti-IgM; activation High dose LPS
substance,measurement,setting,value
B-cell receptors of primary murine B cells edited to express the VRC26.25 HCDR3 (antibody),% of cells in the SOSIP gate,[1],4.54%
same,% of cells above the SOSIP gate line,SOSIP [2],4.62%
same,% of cells above the SOSIP gate line,SOSIP [3],4.47%
same,% of cells in the SOSIP gate,[4],3.83%
same,% of cells in the SOSIP gate,[5],3.59%
same,% of cells in the SOSIP gate,ConM-v8.1ds [6],3.62%
same,% of cells in the SOSIP gate,[7],3.22%
same,% of cells in the SOSIP gate,BG505ConM-v7ds (GnTI-),4.61%
same,% of cells in the SOSIP gate,ConM-v7ds (GnTI-),4.48%
same,% of cells in the SOSIP gate,CRFConM-v8.1ds (GnTI-),7.8%
same,% of cells in the SOSIP gate,CRF250ConM-v7ds (GnTI-),6.33%
same,% of cells in the SOSIP gate,CRF250ConM-v8.1 (GnTI-),5.16%
same,% of cells in the SOSIP gate,BG505ConM-v8.1 (GnTI-),7.41%
same,% of cells in the SOSIP gate,[8],5.87%
same,% of cells in the SOSIP gate,ConM-v8.1(GnTI-),6.89%
same,% of cells in the SOSIP gate,ConM-v7ds,5.51%
same,% of cells in the SOSIP gate,ConM-v7 (GnTI-),7.31%
same,% of cells in the SOSIP gate,BG505ConM-v8.1ds (GnTI-),6.39%
same,% of cells in the SOSIP gate,BG505ConM-v7ds,5.08%
same,% of cells in the SOSIP gate,CRF250ConM-v7ds,5.46%
same,% of cells in the SOSIP gate,ConM-v8.1ds [9],6.58%
same,% of cells in the SOSIP gate,[10],6.6%
same,% of cells in the SOSIP gate,ConM-v7,5.57%
same,% of cells in the SOSIP gate,ConM-8.1ds (GnTI-),7.68%
same,% of cells in the SOSIP gate,BG505ConM-v8.1,5.19%
same,% of cells above the SOSIP gate line,SOSIP [11],3.41%
